Experiment [1] concerns the target T1, purified recombinant human Napi2b antigen consisting of Napi2b-extracellular-loop2 expressed as … (human, UniProt O95436 234-362, limits assumed).
T1 construct: Expressed in Expi-HEK293 cells; also called immobilized human NaPi2B; not shown: Fc part; 6-His tag
T1 sequence: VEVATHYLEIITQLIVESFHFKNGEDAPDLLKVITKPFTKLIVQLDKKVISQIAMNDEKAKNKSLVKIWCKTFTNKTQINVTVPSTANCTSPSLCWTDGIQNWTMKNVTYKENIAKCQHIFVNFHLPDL
The experiment can be described thus: ELISA, coated Napi2b-extracellular-loop2-Fc-6-His, apparent KD from one-site fit.

Experiment [2] concerns the target T2, human NaPi2b on NaPi2b-positive cell lines OVCAR-3 and HCC-78 (human, UniProt O95436 1-690).
T2 construct: Endogenous protein
T2 sequence: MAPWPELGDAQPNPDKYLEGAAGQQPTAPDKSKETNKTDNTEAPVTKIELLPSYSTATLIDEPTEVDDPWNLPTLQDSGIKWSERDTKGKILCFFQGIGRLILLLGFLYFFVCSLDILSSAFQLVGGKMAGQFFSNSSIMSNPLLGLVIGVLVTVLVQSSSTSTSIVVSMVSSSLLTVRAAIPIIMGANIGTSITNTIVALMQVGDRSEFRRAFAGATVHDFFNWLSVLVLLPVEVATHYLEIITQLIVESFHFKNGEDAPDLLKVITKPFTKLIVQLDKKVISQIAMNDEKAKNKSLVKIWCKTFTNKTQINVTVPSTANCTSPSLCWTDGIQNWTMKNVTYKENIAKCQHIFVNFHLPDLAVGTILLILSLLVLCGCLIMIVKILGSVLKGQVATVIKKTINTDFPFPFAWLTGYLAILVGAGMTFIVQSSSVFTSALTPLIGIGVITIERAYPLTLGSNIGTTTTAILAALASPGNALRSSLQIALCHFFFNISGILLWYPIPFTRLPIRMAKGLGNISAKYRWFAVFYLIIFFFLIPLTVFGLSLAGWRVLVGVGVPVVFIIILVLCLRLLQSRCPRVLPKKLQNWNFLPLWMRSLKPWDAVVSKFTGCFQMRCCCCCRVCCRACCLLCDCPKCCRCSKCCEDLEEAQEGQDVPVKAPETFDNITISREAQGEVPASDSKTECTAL
The experiment can be described thus: flow cytometry on OVCAR-3 cells; table column Binding KD (nmol/L), FACS (OVCAR-3). A general note: Flow cytometry measures light scatter and fluorescence of single cells or particles in a stream.

Experiment [3] deals with T1, purified recombinant human Napi2b …. Nature of the experiment: ELISA on the isolated immobilized protein; table column Binding KD (nmol/L), ELISA.
In experiment [4] the target is T3, human Napi2b-mCherry on HEK293 cells (human, UniProt O95436 1-690).
T3 construct: also called Napi2b (SLC34A2); HEK293 cells overexpressing Napi2b
T3 sequence: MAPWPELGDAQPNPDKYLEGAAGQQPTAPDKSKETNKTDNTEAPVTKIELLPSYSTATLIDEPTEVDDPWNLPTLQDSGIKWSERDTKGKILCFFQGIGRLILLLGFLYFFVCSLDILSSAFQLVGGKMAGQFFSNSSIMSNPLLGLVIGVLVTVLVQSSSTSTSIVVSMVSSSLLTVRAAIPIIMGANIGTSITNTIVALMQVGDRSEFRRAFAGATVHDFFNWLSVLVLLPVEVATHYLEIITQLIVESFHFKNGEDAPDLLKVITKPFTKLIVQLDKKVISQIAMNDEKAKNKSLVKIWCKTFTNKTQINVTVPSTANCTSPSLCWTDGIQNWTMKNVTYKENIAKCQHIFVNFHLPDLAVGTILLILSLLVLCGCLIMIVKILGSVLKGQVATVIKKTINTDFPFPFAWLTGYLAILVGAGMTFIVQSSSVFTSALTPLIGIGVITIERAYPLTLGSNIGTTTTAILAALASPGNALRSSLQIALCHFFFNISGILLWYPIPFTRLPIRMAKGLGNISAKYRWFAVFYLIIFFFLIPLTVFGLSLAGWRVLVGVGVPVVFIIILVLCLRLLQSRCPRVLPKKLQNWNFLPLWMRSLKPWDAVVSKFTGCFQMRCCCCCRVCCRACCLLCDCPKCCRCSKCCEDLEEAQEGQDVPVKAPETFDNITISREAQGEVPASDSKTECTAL
The experiment can be described thus: flow cytometry on HEK293 cells stably expressing human full-length NaPi2b-mCherry, Alexa-dye anti-human IgG H+L secondary antibody, MFI ratio, one-site specific binding fit; the Kd table prints no unit, the concentration axis is in nM.
Excerpt: (§1) HEK293 cells stably overexpressing human and rat Napi2b were generated by stable integration of a human or rat full-length Napi2b-mCherry-(GGGS)3x-mCherry expression construct under control of a human EF1 promoter and a Puromycin-selection cassette under a CMV promoter into the parental HEK293 cell line. In brief, cells were transfected with the linearized plasmids using Lipfectamine 2000 (Thermo Fisher) and selected with Puromycin antibiotic. Cells were then single cell cloned in 96-well plates via serial dilution under continuous antibiotic selection. Clones were screened for target expression via flow cytometry and mCherry fluorescence via flow cytometry and fluorescence microscopy. Target- and mCherry-positive clones were expanded and used for further experiments. […] Binding of antibodies was investigated on mCherry-positive cells. Mean fluorescence intensity (MFI) ratios were normalized to the secondary antibody control. The assay was performed in duplicates and data points were analyzed by a non-linear regression using a one-site specific binding model to derive KD values using Prism 9 software.

Experiment [5] has as its target T4, HEK293 cyno-NaPi2B-mCherry (Macaca fascicularis, UniProt A0A2K5UHY1).
T4 construct: full-length mCherry fusion stably expressed on HEK293 cells; also called cynomolgus full-length NaPi2b-mCherry on HEK293 cells
T4 sequence (target on cells): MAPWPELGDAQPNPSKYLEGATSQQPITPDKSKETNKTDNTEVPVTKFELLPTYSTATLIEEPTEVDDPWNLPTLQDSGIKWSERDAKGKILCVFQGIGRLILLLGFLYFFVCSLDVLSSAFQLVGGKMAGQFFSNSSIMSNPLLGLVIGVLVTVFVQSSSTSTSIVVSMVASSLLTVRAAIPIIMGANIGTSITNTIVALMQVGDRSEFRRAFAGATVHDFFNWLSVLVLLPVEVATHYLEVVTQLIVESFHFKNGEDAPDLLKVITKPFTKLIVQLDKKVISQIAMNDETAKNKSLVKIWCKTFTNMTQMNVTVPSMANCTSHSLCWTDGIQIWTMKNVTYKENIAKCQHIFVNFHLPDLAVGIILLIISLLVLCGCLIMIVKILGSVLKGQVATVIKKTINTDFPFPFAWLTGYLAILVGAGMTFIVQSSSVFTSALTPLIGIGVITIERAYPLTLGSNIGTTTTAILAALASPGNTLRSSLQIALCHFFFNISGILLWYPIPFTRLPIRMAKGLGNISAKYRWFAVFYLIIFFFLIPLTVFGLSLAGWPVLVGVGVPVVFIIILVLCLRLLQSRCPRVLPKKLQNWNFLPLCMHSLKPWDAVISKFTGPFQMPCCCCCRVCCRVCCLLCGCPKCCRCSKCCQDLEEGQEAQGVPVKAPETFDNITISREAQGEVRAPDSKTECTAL
Nature of the experiment: flow cytometry on HEK293 cells stably expressing cynomolgus full-length NaPi2b-mCherry, Alexa-dye anti-human IgG H+L secondary antibody, MFI ratio, one-site specific binding fit; the Kd table prints no unit, the concentration axis is in nM.
Excerpt: as §1

Experiment [6] deals with T2, human NaPi2b on NaPi2b-positive cell …. The experiment can be described thus: flow cytometry on HCC-78 cells, one-site fit.
Description: (§2) To determine concentration-dependent binding, NaPi2b-positive OVCAR-3 and HCC-78 were incubated with antibodies in concentrations ranging from 0.00075 to 30 μg/ml, stained with an Alexa-dye-labeled anti-human IgG H+L secondary antibody (Thermo Fisher Scientific), and analyzed by flow cytometry. Mean fluorescence intensity (MFI) ratios were normalized to the non-specific binding control. The assay was performed in duplicates and data points were analyzed by a non-linear regression using a one-site specific binding model using Prism 9 software.
For experiment [7] the target is unchanged. The experiment can be described thus: flow cytometry on OVCAR-3 cells, one-site fit.
Description: as §2
Experiment [8] has the same target. The experiment can be described thus: flow cytometry on NaPi2b-positive HCC-78 cells, Alexa-dye-labeled anti-human IgG H+L secondary antibody, MFI ratio normalized to the non-specific binding control.
Description: as §2
For experiment [9] the target is unchanged. The experiment can be described thus: flow cytometry on NaPi2b-positive OVCAR-3 cells, Alexa-dye-labeled anti-human IgG H+L secondary antibody, MFI ratio normalized to the non-specific binding control.
Description: as §2

By EC50 (read off the curve) is commonly meant the concentration needed to bring the measured effect to its halfway point.

B1: AV-15 antibody (antibody, human IgG1, kappa, L234A L235A, V domains shown)
VH: EVQLVQSGAEVVKPGASVKMSCKASGYTFTGYNIHWVKQAPGQGLEWIGAIYPGNGDTSYKQKFRGRATLTADTSTSTVYMELSSLRSEDSAVYYCARGETARATFAYWGQGTLVTVSS
VL: DIQMTQSPSSLSASVGDRVTITCSASQDIGKFLNWYQQKPGKTVKVLIYYSSSLYSGVPSRFSGSGSGTDYTLTISSLQPEDFATYYCQQYSKVPLTFGQGTKLELKR
For B1, the Kd worked out at 0.0158 µg/mL in experiment [1]; 6.6 nM in experiment [2]; 0.105 nM in experiment [3]; 3.5 nM in experiment [4]; 2.7 nM in experiment [5].

B2: Upifitamab (antibody, human IgG1, kappa, L234A L235A, V domains shown)
VH: EVQLVQSGAEVVKPGASVKMSCKASGYTFTGYNIHWVKQAPGQGLEWIGAIYPGNGDTSYKQKFRGRATLTADTSTSTVYMELSSLRSEDSAVYYCARGETARATFAYWGQGTLVTVSS
VL: DIQMTQSPSSLSASVGDRVTITCSASQDIGNFLNWYQQKPGKTVKVLIYYTSSLYSGVPSRFSGSGSGTDYTLTISSLQPEDFATYYCQQYSKLPLTFGQGTKLELKR
notes: Bought from MedChemExpress
With B2, the Kd amounted to 1.27 µg/mL in experiment [6] and 1.11 µg/mL in experiment [7]. Further, the “EC50 (read off the curve)” value in experiment [8] and in experiment [9] was roughly 1 µg/mL throughout.

B3: AV-18 antibody (antibody, human IgG1, kappa, L234A L235A, V domains shown)
VH: EVQLVQSGAEVVKPGASVKMSCKASGYTFTGYIIHWVKQAPGQGLEWIGAIYPGSGATSYKQKFRGRATLTADTSTSTVYMELSSLRSEDSAVYYCARGETARATFAYWGQGTLVTVSS
VL: DIQMTQSPSSLSASVGDRVTITCSASQDIGNFLNWYQQKPGKTVKVLIYYTSSLYSGVPSRFSGSGSGTDYTLTISSLQPEDFATYYCQQYSKLPLTFGQGTKLELKR
Regarding B3, the Kd in [1] came to 0.0149 µg/mL; in [2] it was 3.8 nM; in [3], 0.099 nM; in experiment [4] it was 2.31 nM; in experiment [5], 1.61 nM.

B4: AV-29 antibody (antibody, human IgG1, kappa, L234A L235A, V domains shown)
VH: EVQLVQSGAEVVKPGASVKMSCKASGYTFTGYNILWVKQAPGQGLEWIGAIYPGNGGTSYKQKFRGRATITADTSTSTVYMELSSLRSEDSAVYYCARGEIARATFAYWGQGTLVTVSS
VL: DIQMTQSPSSLSASVGDRVTITCSASQDIGNFLNWYQQKPGKTVKVLIYYASSLYSGVPSRFSGSGSGTDYTLTISSLQPEDFATYYCQQYSKLPLTFGQGTKLELKR
In the case of B4, the Kd amounted to 0.0124 µg/mL in experiment [1]; 3.5 nM in experiment [2]; 0.082 nM in experiment [3]; 2.66 nM in [4]; 1.91 nM in experiment [5].

B5: AV-21 antibody (antibody, human IgG1, kappa, L234A L235A, V domains shown)
VH: EVQLVQSGAEVVKPGASVKMSCKASGYTFTGQIIHWVKQAPGQGLEWIGAISPGNSGTSYKQKFRGRATLTADTSTSTVYMELSSLRSEDSAVYYCARGETARATFAYWGQGTLVTVSS
VL: DIQMTQSPSSLSASVGDRVTITCSASQDIGNFLNWYQQKPGKTVKVLIYYTSSLYSGVPSRFSGSGSGTDYTLTISSLQPEDFATYYCQQYSKLPLTFGQGTKLELKR
On to B5, for which the Kd is 0.0125 µg/mL in experiment [1]; 3.5 nM in experiment [2]; 0.083 nM in [3]; 2.08 nM in experiment [4]; 1.5 nM in [5].

The values are drawn from patent US20240182596A1 (TUBULIS, published 2024).
